Test results reported in patent publication US10724009B2, “Cannabichromenic acid synthase from Cannabis sativa” (priority 2014, dated 2020).
Values joined by “and” are separate entries in the source; they are usually repeats but may differ in a detail not shown here. Equal entries are not always repeated.

Assays:
[1] = system: mouse tetrad model; settings: at high concentrations (DeLong et al., 2011); cited from earlier work
[2] = target: T1, recombinant CBCAS (Cannabis sativa, UniProt Q33DQ2, H543R/W244C); test: CBCAS assay: conversion of CBGA to CBCA, products analysed by HPLC/LCMS; assay type: biochemical; settings: for inhibition of recombinant CBCAS by additive: FIG. 4, effect of additive on CBCA production, high concentrations; for formation of CBCA from CBGA: recombinant enzyme expressed in Pichia pastoris, CBGA incubated 14 h
T1 construct: alpha-factor signal peptide (vector encoded) (N); made in house; host or cells: Pichia pastoris strain X33
Method: FIG. 4 depicts optimal conditions for CBCAS activity. […] Values are expressed as a fraction of CBCA produced (CBCA A265 nm/(CBGA A265 nm+CBCA A265 nm)*100).
Reactions using media were performed by incubating 10 μmols CBGA in 500 μL of clarified culture media for 14 h. Reactions using hydroxyl-apatite fractions were performed with 100 μL of the fraction incubated with 10 nmols of CBGA for 14 h. Completed reactions were acidified with one drop of 4 N HCl and extracted twice with 400 μL of acetonitrile. After centrifugation, the organic phases were pooled and evaporated to dryness. Products were resuspended in 20 μL of 50% methanol, of which 10 μL was analyzed by LCMS. Products were separated with a Waters Alliance HPLC using a binary solvent system (solvent A: 10% acetonitrile, 0.05% formic acid; solvent B: 99.95% acetonitrile, 0.05% formic acid) and an Ascnetis C18 5 cm×2.1 mm 2.7 μm column (Sigma). Initial conditions: 55% A at 0.25 mL/min. Ramp to 5% A from 0-8 min, hold at 5% A for 2.5 min, return to initial conditions over 2 min and equilibrate at initial conditions for 7 min. Ultraviolet spectra were obtained using photodiode array detection at 200-350 nm.

CCCCCc1cc(O)c2c(c1)OC(C)(CCC=C(C)C)C=C2 (stereo not drawn) [CBC, cannabichromene]
THC-like activity in a mouse tetrad model [1]: shows THC-like activity

Triton X-100 [reference compound]
inhibition of recombinant CBCAS by additive [2]: inhibited by high concentrations

C[S+](C)[O-] [DMSO, reference compound]
inhibition of recombinant CBCAS by additive [2]: inhibited by high concentrations

B1: recombinant CBCAS: Cannabis sativa cannabichromenic acid synthase (SEQ ID NO:2) expressed in Pichia pastoris with alpha-factor signal peptide (protein)
chain: MNCSTFSFWFVCKIIFFFLSFNIQISIANPQENFLKCFSEYIPNNPANPKFIYTQHDQLYMSVLNSTIQNLRFTSDTTPKPLVIVTPSNVSHIQASILCSKKVGLQIRTRSGGHDAEGLSYISQVPFAIVDLRNMHTVKVDIHSQTAWVEAGATLGEVYYWINEMNENFSFPGGYCPTVGVGGHFSGGGYGALMRNYGLAADNIIDAHLVNVDGKVLDRKSMGEDLFWAIRGGGGENFGIIAACKIKLVVVPSKATIFSVKKNMEIHGLVKLFNKWQNIAYKYDKDLMLTTHFRTRNITDNHGKNKTTVHGYFSSIFLGGVDSLVDLMNKSFPELGIKKTDCKELSWIDTTIFYSGVVNYNTANFKKEILLDRSAGKKTAFSIKLDYVKKLIPETAMVKILEKLYEEEVGVGMYVLYPYGGIMDEISESAIPFPHRAGIMYELWYTATWEKQEDNEKHINWVRSVYNFTTPYVSQNPRLAYLNYRDLDLGKTNPESPNNYTQARIWGEKYFGKNFNRLVKVKTKADPNNFFRNEQSIPPLPPRHH
modifications: alpha-factor signal peptide; Cannabis Sativa
temperature of maximal activity ([2]; 35, 40, 45 and 50° C. tested): 40 °C
pH optimum ([2]; FIG. 4, effect of buffer and buffer pH on CBCA production): 5.5
temperature optimum ([2]; FIG. 4, effect of incubation temperature on CBCA production): 40 degrees
pH of maximal activity ([2]; pH 3.5 to 7 tested): 5 and 5.5
formation of CBCA from CBGA [2]: catalyzed the formation of CBCA from CBGA
formation of CBCA from CBGA ([2]; listed as CBCAS): produces CBCA
